Experimental data taken from patent publication US20260217845A1 (published 2026).

Assays:
[1] = biological target: T1, human TNFR2 (extracellular domain) (UniProt P20333 23-257); assay: binding affinity
T1 chain: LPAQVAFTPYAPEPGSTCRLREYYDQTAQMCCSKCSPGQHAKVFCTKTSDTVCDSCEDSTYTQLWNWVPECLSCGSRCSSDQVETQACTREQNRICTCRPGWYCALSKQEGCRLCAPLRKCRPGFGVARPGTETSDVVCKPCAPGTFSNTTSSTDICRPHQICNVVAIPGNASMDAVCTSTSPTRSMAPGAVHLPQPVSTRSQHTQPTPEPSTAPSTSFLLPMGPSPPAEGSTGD

[2] = biological target: T1, human TNFR2 (extracellular domain); assay: SPR
[3] = biological target: T1, human TNFR2 (extracellular domain); assay: SPR
[4] = biological target: T1, human TNFR2 (extracellular domain); assay: SPR
[5] = biological target: T1, human TNFR2 (extracellular domain); assay: SPR
[6] = biological target: T1, human TNFR2 (extracellular domain); assay: binding affinity; marked * on sheet
[7] = biological target: T1, human TNFR2 (extracellular domain); assay: SPR

B1: ODY-37C7 (VHH)
VHH: EVQLVESGGGLVQPGGSLRLSCAASGFTFDDIAMTWVRQAPGKGLEWVSSIYSYGPNTYYADSVKGRFTISTDSAKNTLYLQMNSLKPEDTAVYYCAADSDLSTVVVGPHDYWGQGTQVTVSS
**Q.** B1 was tested. Which Kd [1] did it give?
**A.** 13 nM

**Q.** What about the Kd [2] of the same binder?
**A.** 13 nM

B2: ODY-33D4 (VHH)
VHH: EVQLVESGGGLVQAGGSLRLSCAASGRTFSDYGMGWFRQAPGKDSEFVAAINWSNGRTNYADSVKGRFTISRDNAKNTGYLEMNSLKVEDTAVYYCAATPSGKAYSYWGQGTQVTVSS
**Q.** Which Kd [3] does the source give for B2 here?
**A.** 5.6 nM

**Q.** And the Kd [1]?
**A.** 5.6 nM

B3: ODY-31D6 (VHH)
VHH: EVQLVESGGGLVQAGGSLRLSCAASGSIVSTNGMGWHRQVPGKGRELVAGIRSDGFTNYADSVKGRFTISSDNVKNTVYLQMNSLKAEDSGVYFCYYQALSSPNYGQTFWGQGTQVTVSS
**Q.** Which results are given for B3?
**A.** Kd [1]: 19 nM; Kd [4]: 19 nM

B4: ODY-31G3 (VHH)
VHH: EVQLVESGGGLVQAGGSLRVSCAASGSIFRADAMGWHRQVPGKPREFVAGIRSDGFTNYAEAVKGRFTISWDTVKNTVYLQMNSLKPEDTAVYTCYYQSLSSPNYGQVFWGQGTQVTVSS
**Q.** For B4, which Kd [5] is on record?
**A.** 7.9 nM

**Q.** What about the Kd [1] of the same binder?
**A.** 7.9 nM

B5: ODY-35A10 (VHH)
VHH: EVQLVESGGGLVEAGGSLRLSCAASGRTFGSYTMGWFRQAPGREQEFLASIRRTGGSTSYADSVKGRFTISRDNAKKAVYLQMNSLKPEDTAVYYCAAAPTGRAFTYWGQGTQVTVSS
**Q.** For B5, which Kd [6] is on record?
**A.** 48 nM

**Q.** And the Kd [7]?
**A.** 48 nM
